Source: paper PMC13580404 (Molecular cell, 2026)

How the values were obtained:
Assay in all cases: ITC; RPN13 Pru in the cell (15.6, 20.57 or 16 μM), RPN2 (940–953) in the syringe; 25°C; 20 mM sodium phosphate, 50 mM NaCl, pH 6.0, with 10 mM βME (reducing) or without (non-reducing); one-site fit
Details in all cases: both partners purified
[1] = target: T1, oxidized RPN13 Pru (1–150) (UniProt Q16186 1-150, oxidized with 0.05% H2O2; the residues are not told)
T1 construct: RPN13 Pru domain, residues 1-150; also called oxi RPN13^Pru; oxi-RPN13^Pru; source: E. coli BL21(DE3) pLysS, purified; oxidized with 0.05% H2O2 on ice for 10 min; not shown: His6, N-terminal, cleaved
T1 sequence (Q16186 1-150): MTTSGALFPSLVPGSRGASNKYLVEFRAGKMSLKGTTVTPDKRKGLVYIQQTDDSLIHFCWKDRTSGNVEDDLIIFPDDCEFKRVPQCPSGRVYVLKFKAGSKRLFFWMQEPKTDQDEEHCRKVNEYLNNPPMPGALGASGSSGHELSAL

[2] = target: T2, RPN13 Pru (1–150), reduced (UniProt Q16186 1-150)
T2 construct: also called RPN13 (1–150); redu RPN13^Pru; source: E. coli BL21(DE3) pLysS, purified (Talon resin, PreScission cleavage, Superdex 75); not shown: His6, N-terminal, cleaved
T2 sequence (Q16186 1-150): as above

[3] = target: T3, oxidized RPN13 Pru (1–150) after incubation with TXNL1^Trx (UniProt Q16186 1-150, oxidized with 0.05% H2O2, then restored by a 3-fold molar excess of TXNL1 Trx; the residues are not told)
T3 construct: RPN13 Pru domain, residues 1-150; source: E. coli BL21(DE3) pLysS, purified; not shown: His6, N-terminal, cleaved
T3 sequence (Q16186 1-150): as above

- Kd [1]: 40 ± 15.3 nM
- Kd [2]: 12.4 ± 5.29 nM
- Kd [3]: 18.9 ± 5.7 nM
B1: RPN2 (940–953) (peptide, UniProt Q99460 940-953, looked up)
chain: QEPEPPEPFEYIDD
notes: Eluted from the resin as GST-RPN2 (940–953); also called RPN2 peptide; GST-RPN2 (940–953); source: E. coli BL21(DE3) pLysS, purified (glutathione resin, eluted with reduced glutathione, Superdex 75)
